For test [1], the system named is type VI collagen formation (PRO-C6) in fibrotic human PCLS. The test is described as follows: Fibrotic human precision-cut lung slice (PCLS) model, PRO-C6 biomarker of ECM remodeling. To be noted: 48 hours. Type of test: cell-based. The method, then:
Studies were performed to evaluate the effect of the mAb5 antibody on biomarkers reflecting ECM remodeling in a fibrotic human precision-cut lung slice (PCLS) model. The anti-fibrotic effect was investigated at three different concentrations in human ex vivo lung tissue slices prepared from pulmonary fibrosis patients.
Tissue slices were prepared from the subpleural and central region of the fibrotic lung from two human end-stage donors with pulmonary fibrosis (IPF and secondary fibrosis) (see, for example, Hess et al., Toxicol In Vitro. 32:347-61, 2016). For both donors, lung tissue samples from two different regional areas (subpleural and central) were used to generate tissue cores used for PCLS. Adjacent cores were used to achieve serial PCLS for the analysis of one treatment as compared to medium treated PCLS from the same cores. This enables the comparison of densely packed fibrotic areas with fibrotic foci with less affected areas. To ensure the fibrotic status, clinical/demographic information for each patient is provided.
Each treatment was tested with three replicates for each lung region and for each donor.
Preparation and incubation of precision-cut lung slices. Lung lobes were canuled and filled with 37° C. warm 2% low-melting agarose/medium solution. Filled lobes were cooled on ice to polymerise agarose. Tissue cores with a diameter of 8 mm were prepared and cut into approximately 300 μm thick slices using a microtome (Krumdieck tissue slicer, Alabama Research and Development, Muniford, AL, USA or Vibratome OTS-5000, Science Services GmbH, Munich) in Earle's Balanced Salts Solution (EBSS). Tissue slices were incubated in Dulbecco's modified Eagle's medium/nutrient mixture F-12 Ham (DMEM) with L-glutamine and 15 mM HEPES without phenol red. Tissue slices were transferred into petri dishes and washed with DMEM for 2 hours. Medium was changed four times every 30 minutes in order to remove cell debris.
Two PCLS per well were left over night in 500 μL DMEM in 24-well plates for a final washing step. Next day, PCLS were treated with experimental treatments or controls (see Table E5) in 250 μl DMEM/F-12 culture medium for 48 hours under normal cell culture conditions (37° C., 5% CO2). Medium contained 100 units/mL penicillin and 100 μg/mL streptomycin and was not supplemented with fetal calf serum.
After incubation for 48 hours, supernatants were collected, proteinase inhibitor cocktail (0.2%) was added and samples were frozen to −80° C. Additionally, the two PCLS from each well were transferred to a 2 mL safe-lock tube, snap-frozen in liquid nitrogen immediately, and stored at −80° C. Samples from the three replicates for each condition were not pooled.
Extracellular matrix remodeling evaluation. Biomarkers that reflect ECM remodeling were assessed in supernatant by Nordic Bioscience using the following competitive ELISA: PRO-C6 (C-terminal of type VI collagen C5 domain released as type VI collagen is incorporated into the matrix; measured on mesoscale platform [hsPRO-C6]): Reflects type VI collagen formation. Type VI collagen is a beaded filament collagen mainly found in the interface between the interstitial matrix and the basement membrane.
Statistics. […] Pooled data are presented as percentage of the “no treatment” control, calculated for individual regions and donors. Statistical significant differences were evaluated on pooled data by Kruskal-Wallis with Dunn's multiple comparisons test, comparing to the “no treatment” control. […]

Test [2] deals with T1, IL-11R on STAT3 Reporter (Luciferase)-HEK293 cells (UniProt Q14626 23-422).
T1 sequence (looked up): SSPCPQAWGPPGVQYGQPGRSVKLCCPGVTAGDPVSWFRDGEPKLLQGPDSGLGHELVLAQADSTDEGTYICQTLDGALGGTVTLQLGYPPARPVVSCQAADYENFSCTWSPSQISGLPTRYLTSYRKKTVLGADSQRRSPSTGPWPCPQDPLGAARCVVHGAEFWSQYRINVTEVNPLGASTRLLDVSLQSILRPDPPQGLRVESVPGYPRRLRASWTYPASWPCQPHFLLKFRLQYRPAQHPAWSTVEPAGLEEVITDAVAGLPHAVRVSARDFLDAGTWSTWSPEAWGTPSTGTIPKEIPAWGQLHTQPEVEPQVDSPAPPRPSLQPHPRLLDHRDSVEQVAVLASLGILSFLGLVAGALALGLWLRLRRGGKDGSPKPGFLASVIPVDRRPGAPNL
Briefly: cell-based or functional assay.

Test [3] concerns the target T2, human IL-11Rα (human, UniProt Q14626 23-363, limits assumed).
T2 construct: Protein coated on ELISA plates and used in solution for BLI; also called hIL-11Rα; hIL-11R
T2 sequence: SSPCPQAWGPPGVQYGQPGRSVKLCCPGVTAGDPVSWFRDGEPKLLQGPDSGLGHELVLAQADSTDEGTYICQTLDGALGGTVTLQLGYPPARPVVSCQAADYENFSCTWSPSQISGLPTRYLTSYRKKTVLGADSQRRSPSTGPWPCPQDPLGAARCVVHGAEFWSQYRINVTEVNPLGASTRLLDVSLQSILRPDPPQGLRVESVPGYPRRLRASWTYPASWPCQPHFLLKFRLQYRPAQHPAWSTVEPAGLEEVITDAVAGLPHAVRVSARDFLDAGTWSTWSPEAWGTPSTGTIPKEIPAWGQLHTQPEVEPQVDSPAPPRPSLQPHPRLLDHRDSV
The test is described as follows: BLI (Octet RED96e), mAb on protein G biosensors, hIL-11Rα in solution. The method, then:
Association was carried out in the presence of a 2-fold dilution series of hIL-11Rα and was allowed to proceed for 120 seconds; dissociation was measured for 300 to 1200 seconds.
In general terms: In BLI a coated tip is dipped into the sample, and binding shifts an interference pattern.

In test [4] the target is T2, human IL-11Rα. The test is described as follows: competitive ELISA, IL-11R coated on plate; competitor: biotinylated 8E2 (0.1 µg/mL). The method, then: (§1) Relative binding activity of the antibodies was tested by competitive ELISA using biotinylated mAbs 8E2 or TS7. Antibodies 8E2 and TS7 were biotinylated using sulfo-NHS Biotin (Thermo Fisher) per the manufacturer's instructions. IL-11R was coated onto ELISA plates (Nunc, MaxiSorp) at 2 μg/mL in PBS, and plates were blocked with 2% BSA in PBS. After washing the plate with water, antibodies to be tested were titrated across the plate in a final volume of 90 μL followed by addition of 10 μL of biotinylated 8E2 or biotinylated TS7, as indicated in Table E1 (0.1 μg/mL final concentration) to each well. Plates were incubated for 2 hours on a plate-shaker, followed by washing and addition of 100 μL/well of streptavidin-HRP (Jackson ImmunoResearch, 1/1000 dilution). After a further 1 hour incubation, plates were washed, developed with Ultra-TMB HRP substrate (Thermo Fisher), and stopped by the addition of 50 μL/well of 2 M sulfuric acid. Plates were read at 450 nm on an iD5 plate reader (Molecular Devices).
Background: An ELISA detects its analyte on a solid surface through an enzyme-linked reagent.

The target in test [5] is T2, human IL-11Rα. The test is described as follows: competitive ELISA, IL-11R coated on plate; competitor: biotinylated TS7 (0.1 µg/mL). The method, then:
as §1

In test [6] the target is T2, human IL-11Rα. The test is described as follows: BLI (Octet RED96e), mAb on anti-human constant domain (AHC) biosensors, hIL-11R in solution. The source says: A further series of antibodies were designed in which the residue at Kabat position 31 of the heavy chain was varied (mAbs 16-32). In this case an alternate biolayer interferometry assay was used to initially rank the antibodies compared to mAb5, the closest relative in sequence to mAbs 16-32. MAbs were loaded onto anti-human constant domain (AHC) biosensors (FortdBio) in 10× kinetics buffer consisting of PBS, 0.1% BSA, 0.02% Tween 20 for 120 s to achieve a spectral shift value of 0.8 to 1.2 nm. Association was carried out in the presence of 2-fold dilution series of hIL-1 IR and was allowed to proceed for 120 s. Dilution series started 10 nM. The dissociation in 10× kinetics buffer for 1200 s. Binding kinetic measurements were taken on an Octet RED96e instrument.

Take `COC(=O)c1ccc2c(c1)NC(=O)/C2=C(\Nc1ccc(N(C)C(=O)CN2CCN(C)CC2)cc1)c1ccccc1` [nintedanib, Nintedanib, reference compound]: in test [1] (fibrotic human PCLS), the “effects on ECM remodeling” value was “ECM remodeling could be reduced”. Moreover, the “median levels of PRO-C6 compared to the no treatment (media) control” value in test [1] (pooled data all donors and regions, mAb5 0.3, 3.0, 30 μg/mL, nintedanib 1 μM, isotype control 30 μg/mL) is reported as “decreased”.

B1: mAb5 (antibody, V domains shown)
VH: EVQLLESGGGLVQPGGSLRLSCAASGFTFSWYSMTWVRQAPGKGLEWVSSIVPYGDLTQYADSVKGRFTISRDNSKNTLYLQMNSLRAEDTAVYYCAKGPGWGSFDLWGRGTLVTVSS
VL: DIQMTQSPSSLSASVGDRVTITCQASQDINNYLNWYQQKPGKAPKLLIYDASNLQTGVPSRFSGSGSGTDFTFTISSLQPEDIATYYCQQHESQSPTFGPGTKVDIK
notes: Expressed as human IgG4 (S228P EU); also called mAb5 IL11RA Ab
Usually Kd stands for the constant that tells how readily two partners part at equilibrium. Read a low Kd as higher affinity. What is called koff is the first-order rate constant of dissociation. Broadly, the kon is the second-order rate constant of association. Low readings indicate slow association, high ones fast association. One may read the IC50 as the concentration that gives 50% inhibition. A higher IC50 goes with weaker potency. With B1, in test [2], the “IC50, STAT3 luciferase reporter assay (HEK293), inhibiting IL-11, Assay 1” value (shortened to “IC50 … inhibiting IL-11, Assay 1”) stood at 0.16 µg/mL; the “IC50, STAT3 luciferase reporter assay (HEK293), inhibiting IL-11, Assay 2” value (“IC50 … inhibiting IL-11, Assay 2” below) worked out at 0.18 µg/mL; the “IC50, STAT3 luciferase reporter assay (HEK293), inhibiting IL-11, Mean” value (from here on “IC50 … inhibiting IL-11, Mean”) was determined as 0.17 µg/mL. Besides, in the test with human IL-11Rα [3], the Kd was below 1 pM, the koff is below 1e-07 s⁻¹ and the on-rate (kon) worked out at 63700 M⁻¹ s⁻¹. This molecule displayed a half-inhibitory concentration (IC50) with human IL-11Rα [4] of 1.4 µg/mL. Also, the IC50 with human IL-11Rα [5] is 2.1 µg/mL. In the test with human IL-11Rα [6], this molecule gave a Kd of 50 pM, a koff of 2.5e-05 s⁻¹ and a kon of 490000 M⁻¹ s⁻¹.

B2: mAb2 (antibody, V domains shown)
VH: EVQLLESGGGLVQPGGSLRLSCAASGFTFSWYSMTWVRQAPGKGLEWVSSIVPSGGHTQYADSVKGRFTISRDNSKNTLYLQMNSLRAEDTAVYYCAKGPDWGSFDLWGRGTLVTVSS
VL: DIQMTQSPSSLSASVGDRVTITCQASQDINNYLNWYQQKPGKAPKLLIYDASNLQTGVPSRFSGSGSGTDFTFTISSLQPEDIATYYCQQHEFQSPTFGPGTKVDIK
notes: Expressed as human IgG4 (S228P EU)
The molecule B2 showed an IC50 with human IL-11Rα [4] above 30 µg/mL.

B3: mAb15 (antibody, V domains shown)
VH: EVQLLESGGGLVQPGGSLRLSCAASGFTFSWYSMTWVRQAPGKGLEWVSSIVPYGDLTQYADSVKGRFTISRDNSKNTLYLQMNSLRAEDTAVYYCAKGPGWGSFDLWGRGTLVTVSS
VL: DIQMTQSPSSLSASVGDRVTITCQASQDINNYLNWYQQKPGKAPKLLIYDASNLQTGVPSRFSGSGSGTDFTFTISSLQPEDIATYYCQQHETQTPTFGPGTKVDIK
notes: as for B2
For the molecule B3, in test [2], the “IC50 … inhibiting IL-11, Assay 1” value was 0.38 µg/mL; the “IC50 … inhibiting IL-11, Assay 2” value was found to be 0.33 µg/mL; the “IC50 … inhibiting IL-11, Mean” value was determined as 0.36 µg/mL. In the test with human IL-11Rα [3], this molecule had an equilibrium dissociation constant (Kd) below 1 pM, a koff below 1e-07 s⁻¹ and a kon of 84000 M⁻¹ s⁻¹. Moreover, the IC50 with human IL-11Rα [5] amounted to 1.7 µg/mL.

B4: mAb4 (antibody, V domains shown)
VH: EVQLLESGGGLVQPGGSLRLSCAASGFTFSWYSMTWVRQAPGKGLEWVSSIVPYGDLTQYADSVKGRFTISRDNSKNTLYLQMNSLRAEDTAVYYCAKGPDWGSFDLWGRGTLVTVSS
VL: DIQMTQSPSSLSASVGDRVTITCQASQDINNYLNWYQQKPGKAPKLLIYDASNLQTGVPSRFSGSGSGTDFTFTISSLQPEDIATYYCQQHEFQSPTFGPGTKVDIK
notes: as for B2
B4 showed an IC50 in the test with human IL-11Rα [4] of 5.5 µg/mL.

B5: mAb3 (antibody, V domains shown)
VH: EVQLLESGGGLVQPGGSLRLSCAASGFTFSWYSMTWVRQAPGKGLEWVSSIVPYGDLTQYADSVKGRFTISRDNSKNTLYLQMNSLRAEDTAVYYCAKGPDWGSFDLWGRGTLVTVSS
VL: DIQMTQSPSSLSASVGDRVTITCQASQDINNYLNWYQQKPGKAPKLLIYDASNLQTGVPSRFSGSGSGTDFTFTISSLQPEDIATYYCQQHESQSPTFGPGTKVDIK
notes: as for B2
In the test with human IL-11Rα [4], B5 gave an IC50 of 2.8 µg/mL.

B6: mAb6 (antibody, V domains shown)
VH: EVQLLESGGGLVQPGGSLRLSCAASGFTFSWYSMTWVRQAPGKGLEWVSSIVPYGDLTQYADSVKGRFTISRDNSKNTLYLQMNSLRAEDTAVYYCAKGPGWGSFDLWGRGTLVTVSS
VL: DIQMTQSPSSLSASVGDRVTITCQASQDINNYLNWYQQKPGKAPKLLIYDASNLQTGVPSRFSGSGSGTDFTFTISSLQPEDIATYYCQQHEFQSPTFGPGTKVDIK
notes: as for B2
Turning to B6, in test [2], the “IC50 … inhibiting IL-11, Assay 1” value was determined as 11 µg/mL; the “IC50 … inhibiting IL-11, Assay 2” value is 0.39 µg/mL; the “IC50 … inhibiting IL-11, Mean” value worked out at 5.7 µg/mL. Also, in the test with human IL-11Rα [3], the Kd was below 1 pM, the koff is below 1e-07 s⁻¹ and the kon was 800000 M⁻¹ s⁻¹. The molecule further yielded an IC50 with human IL-11Rα [4] of 1.5 µg/mL.

Source of the values: patent US20240425606A1, “ANTI-IL-11RA ANTIBODIES” (Lassen Therapeutics 1, Inc., priority 2021, published 2024).
